Assay: yeast display, Sf9 membrane polyspecificity reagent, FACS + sequencing; frameworks hold sequencing errors
Summary of the method: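 A synthetic nanobody library was expressed on Saccharomyces cerevisiae BJ5465 by galactose induction for 36–48 hours. The library was stained for 1 hour at 4 °C with 10% biotinylated, detergent-solubilized Sf9 membrane reagent and enriched with streptavidin microbeads before FACS. Low and high (top ~1%) gates were set on anti-HA fluorescence for expression and streptavidin fluorescence for reagent binding, and each polyreactivity label reflects the gate of origin.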

| Sequence | polyreactivity (PSR sort gate) |
| --- | --- |
| QVQLVESGGGLVQAGGSLRLSCAASGSTFYGYAMGWYRQAPGKDRELVAAISSGGRTNYADSVKGRFTISRDNAKNTVYLQLHSLKPEDTAVYYCNARRIYGWWEFDYWGQGTQVTVSS | low polyreactivity |
| QVQLVESGGGLVQAGGSLRLSCAASGSTFYGYTMGWYRQAPGKERELVAAISWRGGSTYYADSVKGRFTISRDNAKNTVYLQMNSLKPEDTAVYYFAARPYIVTYPWRRYDYWGQGTQVTVSS | high polyreactivity |
| QVQLVESGGGLVQAGGSLRLSCAASGSTFYGYTMGWYRQATGKERELVAVITYGGSTYYADSVKGRFTISRDNAKNTVYLQMNSLKPEDTAVYYCAKRYAYPAYGRPWRIGRTYDYWGQGTQVTVSS | low polyreactivity |
| QVQLVESGGGLVQAGGSLRLSCAASGSTFYGYVMGWYRQAPGKERELVAAITWRGTSTYYADSVKGRFTISRDNAKNTVYLQMNSLKPEDTAVYYCRGYYDRDVDYWGQGTQVTVSS | high polyreactivity |
| QVQLVESGGGLVQAGGSLRLSCAASGSTFYGYVMGWYRQAPGKERELVAGITRGGSTNYADSVKGRFTISRDNAKNTVYLQMNSLKPEDTAVYYCATRYFSRYYYWGQGTQVTVSS | high polyreactivity |
| QVQLVESGGGLVQAGGSLRLSCAASGSTFYHYAMGWYRQAPGKERELVAAISWSGGSTYYADSVKGRFTISRDNAKNTVYLQMNSLKPEDTAVYYCNKAGRSWFRTGLGYWGKGTQVTVSS | high polyreactivity |
| QVQLVESGGGLVQAGGSLRLSCAASGSTFYHYAMVWYRQAPGKERELVAAISSSGGRTYYADSVKGRFTISRDNAKNTVYLKMNSLKPEDTAVYYCAARAKTSGSIEDYWGQGTQVTVSS | high polyreactivity |
| QVQLVESGGGLVQAGGSLRLSCAASGSTFYINALGGYRQAPGTERELVAAITWNSDSTYYADSVKGRFTISRDNAKNTVYLQMNSLKPEDTAVYYCNKDRIIWGRLYEEGDYWGQGTQVTVSS | low polyreactivity |
| QVQLVESGGGLVQAGGSLRLSCAASGSTFYINTMGRYLQAPGKEREFVAAITWSGGSTYYADSVKGRFTISRDNAKNTVYLQMNSLKPEDTAVYYCAADLYVGDMDYWGQCTQVTVSS | low polyreactivity |
| QVQLVESGGGLVQAGGSLRLSCAASGSTFYIYAMGWYRQAPGKERELVARISGSGGSTYYADSVKVRFTISRDNAKNTVYLQMNSLKPEDTAVYYCAVDPPYSDSLSRYGYWGQGTQVTVSS | low polyreactivity |
| QVQLVESGGGLVQAGGSLRLSCAASGSTFYIYAMGWYRQAPGKERELVATISRGGSTNYADSVKGRFTISRDNAKNTVYLQMNSLKPEDTAVYYCAAEAAFTSYWWSVTYPYDYWGQGTQVTVSS | high polyreactivity |
| QVQLVESGGGLVQAGGSLRLSCAASGSTFYIYVMGWYRQAPGKERELVATITWGGVSTYYADSVKGRFTISRDNAKNTVYLQMNSLKTEDTAVYYCATRGKSHGQQFNYWGQGTQVTVSS | high polyreactivity |
| QVQLVESGGGLVQAGGSLRLSCAASGSTFYKYAMGGYRQAPGKERELVAAISTRGGSTYYADSVKGRFTISRDNAKNTVYLQMNSLKPEDTAVYYCAADGSGGHDDYWGQGTQVTVSS | high polyreactivity |
| QVQLVESGGGLVQAGGSLRLSCAASGSTFYKYAMGWYRQAAGKERELVASISRSGGSTSYADSVKGRFTISRDNGKNTVYLQMYCLKPEDTAVYYCAATWRQHPGSMGYWGQGTQVTVSS | high polyreactivity |
| QVQLVESGGGLVQAGGSLRLSCAASGSTFYKYAMGWYRQAPGKERELVAAISTRGGSTYYADSVKWRFTISRDNAKNTVYLQMNSLKPEDTAVFYCAADGRGGHDVYWGQGSQVTVSS | high polyreactivity |
| QVQLVESGGGLVQAGGSLRLSCAASGSTFYKYAMGWYRQAPGKERELVASISRSGGSTSYADSVKGRFTISRDYAKNTVYLQMNSLKPEDTAVYYCAATWRQHPGSMGYWGQGTQVTVSS | high polyreactivity |
| QVQLVESGGGLVQAGGSLRLSCAASGSTFYKYAMGWYRQAPGKERELVATINISGGSTSYADSVKGRFTISRDYAKNTVYLQMNSLKPEDTAVYYCAASLTRHGYYRRFDYWGQGTQVTVSS | high polyreactivity |
| QVQLVESGGGLVQAGGSLRLSCAASGSTFYKYVMGWYRQAPGKERELVAAISWSGGSTYYADSVKGRFTISRDNAKNTVYLQMNSLKPEDPAVYYCAAETYAYLFHTYDYWGQGTQVTVSS | low polyreactivity |
| QVQLVESGGGLVQAGGSLRLSCAASGSTFYLNVMGWYRQAPGKERELVAAISSSGGSTYYADSVKGRFTISRDNAKNTVYLQMNSLKPEDTAVYYCNKVSAFPHYSGYDYWGQGTQVTVSS | low polyreactivity |
| QVQLVESGGGLVQAGGSLRLSCAASGSTFYLYAMGWYRQAPGKEREFVAAISWSGGRTYYADSVKGRFTISRDNAKNTVYLQMNSLKPEYTAVYYCAARRRYTWQYTRYDMGYWGQGTQVTVSS | low polyreactivity |
| QVQLVESGGGLVQAGGSLRLSCAASGSTFYLYAMGWYRQAPGKERELVAAISRGGTTYYADSVKGRFTISRDNAKNTVYLKMNSLKPEDTAVYYCAARRPWWYGGGMDYWGQGTQVTVSS | high polyreactivity |
| QVQLVESGGGLVQAGGSLRLSCAASGSTFYLYAMGWYRQAPGKERELVAAISYSDGSTYYADSVKGRFTISRDNAKNTVYLQMNSMKPEDTAVYYCAAQHYVRSSIPGFIYYYWGQGTQVNVSS | high polyreactivity |

| Sequence | polyreactivity (PSR sort gate) |
| --- | --- |
| QVQLVESGGGLVQAGGSLRLSCAASGSTFYLYAMGWYRQAPGKERELVAGITGSGGRTYYADSVKGRFTISRDNAKNTVYLQLNSLKPEDTAVYYCNKRRASWSPAGGTYNYWGQGSQVTVSS | low polyreactivity |
| QVQLVESGGGLVQAGGSLRLSCAASGSTFYLYARGWFSQAPGKVRELGAAIRTSGGSTYYADSGKGRFTISRDTAKNTVYLQMNSLKPEDTAVYSCTAAWPYNSVEYWGQGTQVTVSS | low polyreactivity |
| QVQLVESGGGLVQAGGSLRLSCAASGSTFYNNAMGWYRQAPGKEREFVAAIRYRGGSTYYADSVKGRFTISRDNAKNTVYLQMNSLKPEDTAVYYCAADQGVYRTYWVDYWGQGTQVTVSS | high polyreactivity |
| QVQLVESGGGLVQAGGSLRLSCAASGSTFYNNAMGWYRQAPGKERELVATISASSTSTYYADSVKGRFTISRDNAKNTVYLQMNSLKPEDTAVYYCAKDYVHGSTYGYYWYGYDYWGQGTQVTVSS | low polyreactivity |
| QVQLVESGGGLVQAGGSLRLSCAASGSTFYNYAMGWSRQAPGKERELVASITWNGGSTYYADSVKGRFTISRDNAKNTVYLQMNSLKPEDTAVYYCAADWTWTYPYDYWGQGTQVTVSS | low polyreactivity |
| QVQLVESGGGLVQAGGSLRLSCAASGSTFYNYAMGWYRQAPGKERELVASITWNGGSTYYADSVKGRFTISRDNAKNTVYLQMNSLKPEDTAVYYCAADWTWTYPYDYWGQGTQVTVSS | low polyreactivity |
| QVQLVESGGGLVQAGGSLRLSCAASGSTFYPNAMGWYRQAPGKERELVAAITDSVGTTNYADSVKGRFTISRDNAKNTVYLQINSLKPEDTAVYYCTAPIGGSYNTRRAAEYDYWGQGTQVTVSS | low polyreactivity |
| QVQLVESGGGLVQAGGSLRLSCAASGSTFYPTYAMGWYRQAPGKERELVATITGSGGSTYYADSVKGRFTSSRDNAKNTVYLQMNSLKPEDTAVYYCAADRWYSRYTRYGYWGQGTQVTVSS | low polyreactivity |
| QVQLVESGGGLVQAGGSLRLSCAASGSTFYPYAMGRYRQAPGKERELVAAISSGGSTSYADSVKGRFTISRDNAKNTVYLQLNSLKPEDTAVYYCNASSPGAVPVYDYDYWGQGTQVTVSS | low polyreactivity |
| QVQLVESGGGLVQAGGSLRLSCAASGSTFYPYAMGWYRPAPGKERELVAAINWSGGTTYYADSVKGRFTISRDNAKNTVYLQMNSLKPVDTAVYYCAADGYPPGYGYWGQGTQVTVSS | low polyreactivity |
| QVQLVESGGGLVQAGGSLRLSCAASGSTFYPYAMGWYRQAPGKEREFVAAIRSSGTSTYYADSVKGRFTISRDNAKNTVYLQMNSLKPEDTEVYYGAARVRGDSVSRTKPASIGGGSWGQGTQVTVSS | high polyreactivity |
| QVQLVESGGGLVQAGGSLRLSCAASGSTFYQYAMGWYRQAPGKERELVAAITGSGTRTYYADSVKGRFTISRDNAKNTVYLQMNSLKPEDTAVYYCAAQKYYQGYNYWGQGTQVTVSS | high polyreactivity |
| QVQLVESGGGLVQAGGSLRLSCAASGSTFYQYVMGWYRQAPGKESELVAAISSSGGSTYYADSVKGRFTISRDNAKNTVYLQMTSLKPEDTAVYYCAVDNYRGYGHDYYWGQGTQVTVSS | low polyreactivity |
| QVQLVESGGGLVQAGGSLRLSCAASGSTFYRNAMAWYRQAPGKERELVAAISSTGGSTYYADSVKGRFTISRDNAKNTVYLQMNSLKPEDTAVYYCAVDPGLTKGFGYWGQGTQVTVSS | low polyreactivity |
| QVQLVESGGGLVQAGGSLRLSCAASGSTFYRNAMGWYRQAPGKEREFVADITLGGGSTYYADSVKGRFTISRDNAKNTVYLQMNSRKPEDTAVYYCAVDYWQLNYDYWGQGTQVTVSS | low polyreactivity |
| QVQLVESGGGLVQAGGSLRLSCAASGSTFYRYAMGWYRPAPGKERELVAAISSSGGSTYYADSVKGRFTISRDNAKNTVYLQMNSLKPEDTAVYYGNADVHSQYDYWGQGTQVTVSS | low polyreactivity |
| QVQLVESGGGLVQAGGSLRLSCAASGSTFYRYAMGWYRQAPGKERELVAAISGSGGRTYYADSVKGRFTISRDNAKNTVYLQMNSLKPEDTAVYYCATRFGQRSDYWGQGTQVTVSS | high polyreactivity |
| QVQLVESGGGLVQAGGSLRLSCAASGSTFYRYAMGWYRQAPGKERELVAAISQSGGRTYYADSVKGRFTISRDYAKNTVYLQMNSLKPEDTAVYYCAASWYYSLQRYGYWGQGTQVTVST | high polyreactivity |
| QVQLVESGGGLVQAGGSLRLSCAASGSTFYRYAMGWYRQAPGKERELVAAISSSGGRTYYADSVKGRFTISRDNAKKTVYLQMNSLKPEDTAVYYCAAKNAAYARYYYWGQGTQVTVSS | high polyreactivity |
| QVQLVESGGGLVQAGGSLRLSCAASGSTFYRYAMGWYRQAPGKERELVAAISSSGGSTYYADSVKGRFTISRDNAKNTVYLQMNSLKPEDTAVYYCNAALTPYDYDYWGQGTQVTVSS | low polyreactivity |
| QVQLVESGGGLVQAGGSLRLSCAASGSTFYRYAMGWYRQAPGKERELVAAITARGGSTYYADSVKGRFTISRDNAKNTVYLQMNSLKPEDTAVYYCAADWLSTKNDYWGQGTQVTESS | low polyreactivity |

Reference: the nanobody polyreactivity screen of Harvey et al. (2022)
